Experimental data: patent US7709240B2, “AMP deaminase originating streptomyces and utilization thereof” (Amano Enzyme Inc., priority 2004, dated 2010)

Assay: IMP conversion reaction (HPLC)
Assay type: biochemical
Details: 1.1% AMP solution, pH 7.0, 50° C., 4 hours
Method: IMP conversion rate by HPLC of AMP deaminase produced by Aspergillus melleus and Streptomyces murinus was examined. Specifically, by using 1/15M phosphate buffer solution (pH 7.0), 1.1% AMP solution was prepared. To 5 ml of 1.1% AMP solution, 0.5 ml of enzyme solution was added and reacted at 50° C. for 4 hours. Thereafter, heat treatment at 100° C. was carried out for 10 minutes, filter filtration (0.45 μm) was carried out, and HPLC analysis was carried out.

B1: AMP deaminase derived from Streptomyces murinus: thermostable AMP deaminase enzyme produced by Streptomyces murinus IFO14802; amino acid sequence SEQ ID NO: 1 (protein, listed as Streptomyces murinus)
chain: APPPRQATAAEARTDAYLRSVKDRPAALRAFFRQLPKGGDLHNHLSGAVNTDYLIELAAEDGLCIDATMTAVPSPCGPGTRPAADARTDRAFHDAIVRAWSMQDFPPDENGHDHFFDTFGKFGEVTWRHRGKLLAQVADTVVANNQSYLETMVTPASDGAKQLADQVGWDADLTALHRKLAAGGKLDKLVADARKEADDGDAEFRATEHCGTAKARPACGLTVRWISQASRGSSPVRVFTQLDLGMRLAEADSRFVAVNLVQPEDWDSSLENYSLQMRMVGYLRTVYPKAHVTLHAGELWPGLVKPEALKFHIAEAVDIAHTQRVGHGVDLVHEDNWQRTARTMAARQIAVEVPFSSNAQILGVKGAEHPFTTYRRYGVPVVLATDDPGVSRIDISHEYQYAAATYGLGYPELKDLARASLQYAFLPGASLWQGNPTAQGYHPVAACRAERPGQPVHSAACRRLLDGSARARLEWRQEAAFAAFERAHARG
  IMP conversion rate compared with AMP deaminase produced by Aspergillus melleus: the same level
  ratio of the side product (hypoxanthine) compared with Aspergillus melleus: smaller
